This data set is described as follows: soluble on expression in E. coli; label from the status in PepcDB or PDB records.
With “MSLLQSALDFLAGPGSLGGASGRDQSDFVGQTVELGELRLRVRRVLAEGGFAFVYEAQDVGSGREYALKRLLSNEEEKNRAIIQEVCFMKKLSGHPNIVQFCSAASIGKEESDTGQAEFLLLTELCKGQLVEFLKKMESRGPLSCDTVLKIFYQTCRAVQHMHRQKPPIIHRDLKVENLLLSNQGTIKLCDFGSATTISHYPDYSWSAQRRALVEEEITRNTTPMYRTPEIIDLYSNFPIGEKQDIWALGCILYLLCFRQHPFEDGAKLRIVNGKYSIPPHDTQYTVFHSLIRAMLQVNPEERLSIAEVVHQLQEIAAARNVNPKSPITELLEQNGGYGSATLSRGPPPPVGPAGSGYSGGLALAEYDQPYGGFLDILRGGTERLFTNLKDTSSKVIQSVANYAKGDLDISYITSRIAVMSFPAEGVESALKNNIEDVRLFLDSKHPGHYAVYNLSPRTYRPSRFHNRVSECGWAARRAPHLHTLYNICRNMHAWLRQDHKNVCVVHCMDGRAASAVAVCSFLCFCRLFSTAEAAVYMFSMKRCPPGIWPSHKRYIEYMCDMVAEEPITPHSKPILVRAVVMTPVPLFSKQRSGCRPFCEVYVGDERVASTSQEYDKMRDFKIEDGKAVIPLGVTVQGDVLIVIYHARSTLGGRLQAKMASMKMFQIQFHTGFVPRNATTVKFAKYDLDACDIQEKYPDLFQVNLEVEVEPRDRPSREAPPWENSSMRGLNPKILFSSREEQQDILSKFGKPELPRQPGSTAQYDAGAGSPEAEPTDSDSPPSSSADASRFLHTLDWQEEKEAETGAENASSKESESALMEDRDESEVSDEGGSPISSEGQEPRADPEPPGLAAGLVQQDLVFEVETPAVLPEPVPQEDGVDLLGLHSEVGAGPAVPPQACKAPSSNTDLLSCLLGPPEAASQGPPEDLLSEDPLLLASPAPPLSVQSTPRGGPPAAADPFGPLLPSSGNNSQPCSNPDLFGEFLNSDSVTVPPSFPSAHSAPPPSCSADFLHLGDLPGEPSKMTASSSNPDLLGGWAAWTETAASAVAPTPATEGPLFSPGGQPAPCGSQASWTKSQNPDPFADLGDLSSGLQGSPAGFPPGGFIPKTATTAKGSSSWQTSRPPAQGASWPPQAKPPPKACTQPRPNYASNFSVIGAREERGVRAPSFAQKPKVSENDFEDLLSNQGFSSRSDKKGPKTIAEMRKQDLAKDTDPLKLKLLDWIEGKERNIRALLSTLHTVLWDGESRWTPVGMADLVAPEQVKKHYRRAVLAVHPDKAAGQPYEQHAKMIFMELNDAWSEFENQGSRPLF”, the “soluble on expression in E. coli” value is on record as “soluble”.

Turning to “MFDTLTHGELLKKTAMEVEADIAGIHKQIEEISERNEWRVLQSYRKHKVSDTHFTPSTGYGYDDIGRDTLESIYADVFGGEAGLVRPQIISGTHAISIALFGVLRPGDELLYITGKPYDTLEEIVGVRGGENAGSLKDFQIGYNAVDLTKDGKIDYDAVAAAINPKTKVIGIQRSKGYANRPSFLISEIKEMIRFVKEINENLIVFVDNCYGEFVEELEPCHVGADLMAGSLIKNPGGGLAKTGGYLVGKAKWIEACSYRMTSPGIGREAGASLYSLQEMYQGFFLAPHVVSQSLKGAVFTARFLEKLGFTSNPKWDAKRTDLIQSVEFSDGEKMIAFCQAIQFASPIDAHVTPYPAYMPGYEDDVIMAAGTFIQGASIELSADGPIRPPYVAYVQGGLTYSHVKNAICSAVDSLMQKQLILEHHHHHH”, the “soluble on expression in E. coli” value is “soluble”.

As to “MEVFGKSPMVVTSANVIYLSAILGRDCDGHKCDWKCENENVCGNMYRCKLTGLTHVCDKNCNQRILYDNHSSLCRASGRIFPLSSVEEQAVKGVRRKLDAAESHPSESCSFKRRRRDAQFHASPFERSFTAVSPICSPAGDGMELV”, the “soluble on expression in E. coli” value is given as “not soluble”.

For the sequence “MNFPVSDLTSYQELIEQQGLKSQTNIISLDKIIVDIILSEKTGFSRSQQVWCLIRQRIVDGCASVVDIDYLDMRLMPQLNRSIAENSIYDYLENQLHLSISHAFKEITIDNTSEQDKILIDIGKDHHVVCIRSKVYLNNGNQLQFTESRHKLEKFKFVYYAKRHH”, the “soluble on expression in E. coli” value is given as “not soluble”.

Take “IDEKPSDLLLDRIESRFNFDVPRGEGHNTVQAIKAMEEGQAKVFIGLGGNFAQATPDTERTHNAMRNCNLTVHISTKLNRSHLVTGKDALILPCLGRTEIDQQATGPQGVTVEDTFSMVHISFGQLKPRSEHLRSEPAIIAGIANATLGAKPIDWLWAIEDYDRIRDLIADTIPGFTDFNHKLKHPGGFHLVNPAAERRWNTPSGKAQFSSSELPKQLISEAILEKGQKPDLILQTMRSHDQYNTTLYGLNDRYRGVFGMREVLFINEADIRKLGFEPGDKVDMVSLWEDGVERRVSGFTLVAYDVPAGQAAAYYPETNPLVPLDSYGDRTFTPTSKFIAIKLEKSTSNKIALVETE”: the “soluble on expression in E. coli” value is listed as “not soluble”.

Take “VVVTDMGILAKRSVDGSLDIFVQSLSQGLPIANAKVDVVGRNGLSVAEGFTDLGGHVHLPKLGQLRREKRPLFYRVEKAGDVSFLPIGDWRRELDMSRFDIGGSNESEDPNTLSAYLFTDRGLYRPGETAHVASLVRSQSWGASLDGLPVKMVVTDPRGIDVLDRTFNLDSSGFNSLDFSSTEAAVAGEYTASLSLIRDKHNLTRLGEESFKVRDFEPDRIKVRVTLGATESGTSIGWLKPEEVSAKVQAEQLFGGPAGDRRVTGEMVLSPTDISFKELPGYYFGVQGE”: the “soluble on expression in E. coli” value was “not soluble”.

As for “MGSDKIHHHHHHMTLKIEHLTGGYTGVPVIKDINLEIKPGEALGLIGLNGAGKSTTIKHILGLLRPQKGKIILNDVVLTQQPTKFKREVAYIPETPILYPELTLKEHLELTMLSYKLDEKKAWERAHELLKMFRLDDKLEWLPIHFSKGMRQKVMIVSAFLADTSLLVIDEPFTGLDPLAVANLIDLIKQAIANNKMVLMTTHVLADAQQAISNYAVLNNGTIEIIGNLQDIREHYGLKPDDPFDKLYLALNREDHGNA”, the “soluble on expression in E. coli” value is recorded as “not soluble”.

Turning to “MSGFSVYVGNAPFQTTEDDLGNYFSQAGNVSNVRIVCDRETGRPRGFAFVEFTEEAAAQRAVDQFNGVDFNGRALRVNLAQNRNN”, the “soluble on expression in E. coli” value is given as “not soluble”.

In the case of “MTWKPNVTVAAVIEQDDKYLLVEEIPRGTAIKLNQPAGHLEPGESIIQACSREVLEETGHSFLPEVLTGIYHWTCASNGTTYLRFTFSGQVVSFDPDRKLDTGIVRAAWFSIDEIRAKQAMHRTPLVMQCIEDYHAGKRYPLDILQYYD”, the “soluble on expression in E. coli” value is “soluble”.

As for “VKNSNGVREKDGKPFRVELYYAGSDTVRRDIAIEFSSQMKKLGLDFPTIASTWDEIETKLGDVSVVLGGGSAPYDLTIMAYEYLHTRTPSTGKWANPGDYGSEKLNALLDQARSEVDVEKRNNLWRKIQAEYVNNPSALNLVNIDHVYVGKKNDWKKPELLLEPHIHGVTWGPWWRISEWTK”, the “soluble on expression in E. coli” value is “not soluble”.

As for “MAMIKVDQHYFELIENYRECFNEEQFIARYSDILDKYDYIVGDYGYDQLRLKGFYKDSNKKAEMSKRFSNIQDYIFEYCNFGCPYFVLRHLSKQEVKKLIEEVHPSDVIDDDNKLQDVKIKPTIQDTEHLEHHHHHH”, the “soluble on expression in E. coli” value is “soluble”.

Consider “MSLSTEPLASRMRPKNIDEIISQQHLVGPKGIIRRMVDTKRLSSMIFYGPPGIGKTSIAKAISGSTQFKFRQLNAVTNTKKDMQLIVEEAKMSGQVILLLDEIHRLDKAKQDFLLPHLENGKIVLIGATTSNPYHAINPAIRSRAQIFELYPLDQDDIRLALDRAINDKERGLSTYHPIVDEDAIEYFSTQSQGDVRSALNALELAVLSAHIGEENERHITLDDAKDCLQKGAFVSDKDGDMHYDVMSAFQKSIRGSDVNAALHYLARLIEAGDLPTIVRRLLVISYEDVGLASPNAGQRTLAAIQSAERLGFPEARIPLSQAVIELCLSPKSNSGITAIDKALGDIRNGHIGQIPDYLKDGHYSGAKKLGRAIGYKYPHNYENGHVVQQYLPEKLKNRVYYEPKTTSKSEQQFKTIYDNLRNKEGHHHHHH”, for which the “soluble on expression in E. coli” value was “not soluble”.

Turning to “NGFQKEMRTRILGMVPHATISAAQPLDDWQTVANAALRHREVVGAAPFAELQGMLSYKGNMLPVLVNGIDPQEERKVSIVGEHIVQGSLDDLKPGEFGIVLGEITARRFHVNVGDKLTLIVPEATSAPGGITPRMQRFTIVALFKVGAELDNSLALIDIADAGQLLRLQPGQVPSVRLELKDLYQSPQVAAKVVKELGQGFRSSDWTRTQGSLFNAMKMEKT”, the “soluble on expression in E. coli” value is reported as “not soluble”.

These data come from the DeepSol protein solubility set.
